B1: GAS2-like protein 1, residues 209 to 276; numbered along this chain, Q99501 (parent)
chain: DELVREILGRCTCPDQFPMIKVSEGKYRVGDSSLLIFVRVLRSHVMVRVGGGWDTLEHYLDKHDPCRC

Variants of: B1
Assay: abundance fitness (aPCA) (normalised: wild type 0, dead -1); higher = more abundant; growth selection in yeast, the domain comes from the species named
Settings: Homo sapiens

Abundance fitness of substitutions, site by site:
E57: S -0.388, T -0.365, V -0.765
H58: A 0.043, C -0.3, E -0.102, F -0.877, G 0.008, K -0.138, L -0.673, M -0.514, P -0.933, Q -0.34, R -0.116, V -0.688, W -0.752, Y -0.676
Y59: A -0.927, D -1.03, E -0.946, F 0.139, G -0.904, H -1.03, I -0.962, K -0.782, L -0.749, M -0.767, N -1.02, P -0.954, Q -0.55, R -0.886, S -0.583, T -0.862, V -0.568
L60: D -0.584, E -0.842, F -0.864, G -0.915, I -0.531, K -0.838, M -0.572, N -0.885, P -0.872, Q -0.708, R -0.889, S -0.928, T -0.994, W -0.9, Y -0.822
D61: A -0.074, E 0.105, F -0.203, G -0.176, H -0.274, I -0.3, K -0.249, L -0.063, M -0.073, N -0.094, P -0.729, Q -0.123, R -0.212, S -0.146, T -0.183, V -0.246, W -0.305, Y -0.068
K62: A -0.069, C -0.25, D -0.234, E 0.054, F -0.27, G -0.337, H -0.298, I -0.078, L -0.004, M -0.038, N -0.091, P -0.832, Q 0.137, R -0.065, S -0.214, T -0.048, V 0.092, W -0.512, Y -0.242
H63: A -0.434, C -0.377, E -0.11, F -0.015, G -0.719, K -0.077, L -0.18, M -0.145, P -0.455, Q -0.555, R -0.162, T -0.322, V -0.017, W -0.233, Y -0.081
D64: A -1.03, C -0.319, E -0.668, F -0.419, G -0.792, H -0.511, I -0.75, K -1.12, L -0.812, M -0.888, N -0.86, P -0.824, Q -0.93, R -0.659, S -1.02, T -0.869, V -0.927, Y -0.936
P65: A -0.591, C -0.819, D -0.757, E -0.688, G -0.837, H -0.605, I -0.711, K -0.734, M -0.946, N -0.498, Q -0.771, R -0.625, S -0.898, V -0.904, W -0.857, Y -0.826
C66: A -0.878, D -0.502, E -0.693, F -0.928, G -0.848, H -0.822, I -0.722, K -0.746, L -0.875, M -0.734, P -0.763, Q -0.608, R -0.797, S -0.621, T -0.751, V -0.97, W -1.01, Y -0.594
R67: A -0.763, C -0.92, D -0.849, E -0.847, G -0.945, H -0.931, I -0.638, K -0.616, L -0.706, M -0.899, N -1.01, P -0.902, Q -0.882, S -0.789

From the Human Domainome abundance scans (Beltran et al. 2025)
